Source: patent publication US20230167164A1 (IMMUNOWAKE, published 2023)
Where a chain is given by its changes, count along the chain named. Names may count otherwise.

Tests used:
[1] = target: T1, mouse PD-1 (mouse, UniProt Q02242 25-167, limits assumed); experiment: affinity measured in PD-L2-Fc format; method not named
T1 construct: also called mPD-1
T1 sequence (looked up): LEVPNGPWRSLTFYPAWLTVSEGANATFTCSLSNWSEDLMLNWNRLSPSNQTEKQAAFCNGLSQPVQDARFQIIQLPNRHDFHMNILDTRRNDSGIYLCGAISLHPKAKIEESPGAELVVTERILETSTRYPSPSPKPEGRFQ

[2] = target: T2, human PD-1 (human, UniProt Q15116 25-167, limits assumed); experiment: as above
T2 construct: nivolumab is called an anti-human PD-1 antibody; also called hPD-1
T2 sequence (Q15116 25-167 limits assumed): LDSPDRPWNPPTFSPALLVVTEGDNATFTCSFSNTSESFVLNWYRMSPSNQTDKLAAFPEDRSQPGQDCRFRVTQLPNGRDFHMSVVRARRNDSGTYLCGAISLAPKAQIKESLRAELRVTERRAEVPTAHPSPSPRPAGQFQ

[3] = target: T1, mouse PD-1; experiment: method not named
[4] = target: T2, human PD-1; experiment: method not named
[5] = target: T1, mouse PD-1; experiment: Kd column of Table 22; same value as PD-L1(mut2)-Fc in Table 20
[6] = target: human IL-12 receptor complex (human, UniProt P42701 24-662; Q99665 24-862); experiment: cell-based or functional assay
Sequence of human IL-12 receptor complex (Q99665 24-862, chain 2 of 2, other chains not shown): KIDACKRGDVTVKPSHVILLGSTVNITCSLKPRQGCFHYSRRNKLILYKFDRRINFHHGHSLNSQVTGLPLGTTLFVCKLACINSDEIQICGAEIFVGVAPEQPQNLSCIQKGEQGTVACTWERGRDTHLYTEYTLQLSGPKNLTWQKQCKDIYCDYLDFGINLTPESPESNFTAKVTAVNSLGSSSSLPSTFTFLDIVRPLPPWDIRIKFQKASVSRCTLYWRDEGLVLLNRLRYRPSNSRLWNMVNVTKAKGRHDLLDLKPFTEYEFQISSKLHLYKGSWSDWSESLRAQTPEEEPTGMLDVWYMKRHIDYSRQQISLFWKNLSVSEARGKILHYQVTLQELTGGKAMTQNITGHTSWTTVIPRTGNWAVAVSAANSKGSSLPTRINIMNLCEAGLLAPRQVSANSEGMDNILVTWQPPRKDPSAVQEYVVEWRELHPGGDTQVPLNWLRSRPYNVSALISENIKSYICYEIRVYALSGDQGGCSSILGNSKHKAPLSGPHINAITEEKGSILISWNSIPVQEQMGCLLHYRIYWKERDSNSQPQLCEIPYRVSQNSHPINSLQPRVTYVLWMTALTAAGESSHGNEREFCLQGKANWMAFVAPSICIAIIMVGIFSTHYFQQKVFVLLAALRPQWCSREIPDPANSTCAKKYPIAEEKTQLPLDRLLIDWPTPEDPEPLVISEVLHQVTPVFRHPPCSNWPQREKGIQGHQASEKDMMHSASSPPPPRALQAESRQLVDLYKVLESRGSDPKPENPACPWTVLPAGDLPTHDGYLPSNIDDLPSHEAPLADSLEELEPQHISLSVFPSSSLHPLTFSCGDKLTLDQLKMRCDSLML

[7] = target: human PD-1 overexpressed on HEK-Blue reporter cells (human, UniProt Q15116 25-288); experiment: cell-based or functional assay
Sequence of human PD-1 overexpressed on HEK-Blue reporter cells (Q15116 25-288): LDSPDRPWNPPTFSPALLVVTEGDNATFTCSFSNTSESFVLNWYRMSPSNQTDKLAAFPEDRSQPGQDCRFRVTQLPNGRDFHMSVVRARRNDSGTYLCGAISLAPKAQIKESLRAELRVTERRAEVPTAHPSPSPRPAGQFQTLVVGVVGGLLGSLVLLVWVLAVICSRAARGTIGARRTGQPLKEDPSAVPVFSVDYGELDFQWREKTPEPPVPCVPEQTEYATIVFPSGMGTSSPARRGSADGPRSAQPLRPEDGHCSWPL

[8] = target: T1, mouse PD-1; experiment: Kd column of Table 22; same value as PD-L2(WT)-Fc in Table 21

B1: PD-L2(wt)-Fc (Fc fusion)
chain 1: LFTVTVPKELYIIEHGSNVTLECNFDTGSHVNLGAITASLQKVENDTSPHRERATLLEEQLPLGKASFHIPQVQVRDEGQYQCIIIYGVAWDYKYLTLKVKASYRKINTHILKVPETDEVELTCQATGYPLAEVSWPNVSVPANTSHSRTPEGLYQVTSVLRLKPPPGRNFSCVFWNTHVRELTLASIDLQSQMEPRTHPTDKTHTCPPCPAPEDEGGPSVFLFPPKPKDTLMISRTPEVTCVVVDVSHEDPEVKFNWYVDGVEVHNAKTKPREEQYNSTYRVVSVLTVLHQDWLNGKEYKCKVSNKALPAPIEKTISKAKGQPREPQVYVYPPSREEMTKNQVSLTCLVKGFYPSDIAVEWESNGQPENNYKTTPPVLDEDGSFALVSKLTVDKSRWQQGNVFSCSVMHEALHNHYTQKSLSLSPGK
chain 2: B1 chain 1 with D215K, E216K, Y332L, T347L, N371R, K373M, T375W, E381S, A386F, V388Y
notes: also called None
Kd [1]: 980 nM | Kd [2]: 1200 nM

B2: IL-12(E59A/F60A)/PD-L1(mut2)-Fc (Fc fusion)
chain 1: FTVTVPKDLYVVEYGSNMTIECKFPVEKQLDLAALQVYWMMEDKNIIQFVHGEEDLKVQHSSYRQRARLLKDQLSLGNAALQITDVKLQDAGVYTCLIAYKGADYKRITVKVNAPYNKINQRILVVDPVTSEHELTCQAEGYPKAEVIWTSSDHQVLSGKTTTTNSKREEKLFNVTSTLRINTTTNEIFYCTFRRLDPEENHTAELVIPELPLAHPPNERGGGGSGGGIWELKKDVYVVELDWYPDAPGEMVVLTCDTPEEDGITWTLDQSSEVLGSGKTLTIQVKAAGDAGQYTCHKGGEVLSHSLLLLHKKEDGIWSTDILKDQKEPKNKTFLRCEAKNYSGRFTCWWLTTISTDLTFSVKSSRGSSDPQGVTCGAATLSAERVRGDNKEYEYSVECQEDSACPAAEESLPIEVMVDAVHKLKYENYTSSFFIRDIIKPDPPKNLQLKPLKNSRQVEVSWEYPDTWSTPHSYFSLTFCVQVQGKSKREKKDRVFTDKTSATVICRKNASISVRAQDRYYSSSWSEWASVPCSGGGGSGGGSGGGGSRNLPVATPDPGMFPCLHHSQNLLRAVSNMLQKARQTLEFYPCTSEEIDHEDITKDKTSTVEACLPLELTKNESCLNSRETSFITNGSCLASRKTSFMMALCLSSIYEDLKMYQVEFKTMNAKLLMDPKRQIFLDQNMLAVIDELMQALNFNSETVPQKSSLEEPDFYKTKIKLCILLHAFRIRAVTIDRVMSYLNASGGGGSGGGDKTHTCPPCPAPEDEGGPSVFLFPPKPKDTLMISRTPEVTCVVVDVSHEDPEVKFNWYVDGVEVHNAKTKPREEQYNSTYRVVSVLTVLHQDWLNGKEYKCKVSNKALPAPIEKTISKAKGQPREPQVYVYPPSREEMTKNQVSLTCLVKGFYPSDIAVEWESNGQPENNYKTTPPVLDEDGSFALVSKLTVDKSRWQQGNVFSCSVMHEALHNHYTQKSLSLSPGK
chain 2: FTVTVPKDLYVVEYGSNMTIECKFPVEKQLDLAALQVYWMMEDKNIIQFVHGEEDLKVQHSSYRQRARLLKDQLSLGNAALQITDVKLQDAGVYTCLIAYKGADYKRITVKVNAPYNKINQRILVVDPVTSEHELTCQAEGYPKAEVIWTSSDHQVLSGKTTTTNSKREEKLFNVTSTLRINTTTNEIFYCTFRRLDPEENHTAELVIPELPLAHPPNERGGGGSGGGDKTHTCPPCPAPEKKGGPSVFLFPPKPKDTLMISRTPEVTCVVVDVSHEDPEVKFNWYVDGVEVHNAKTKPREEQYNSTYRVVSVLTVLHQDWLNGKEYKCKVSNKALPAPIEKTISKAKGQPREPQVYVLPPSREEMTKNQVSLLCLVKGFYPSDIAVEWESNGQPENRYMTWPPVLDSDGSFFLYSKLTVDKSRWQQGNVFSCSVMHEALHNHYTQKSLSLSPGK
notes: also called IL-12(E59A/F60A)/PD-L1(I54Q/E58M/R113T/M115L/S117A/G119K)-Fc
Kd [3]: ~100 nM | Kd [4]: ~100 nM | Kd [5]: 120 nM | IL-12 signal transduction, % of rIL-12, HEK-IL-12 cells [6]: < 0.2% | IL-12 signal transduction, % of rIL-12, HEK-IL-12-PD-1 cells [7]: 24%

B3: IL-12(E59A/F60A)/PD-L2(WT)-Fc (Fc fusion)
chain 1: LFTVTVPKELYIIEHGSNVTLECNFDTGSHVNLGAITASLQKVENDTSPHRERATLLEEQLPLGKASFHIPQVQVRDEGQYQCIIIYGVAWDYKYLTLKVKASYRKINTHILKVPETDEVELTCQATGYPLAEVSWPNVSVPANTSHSRTPEGLYQVTSVLRLKPPPGRNFSCVFWNTHVRELTLASIDLQSQMEPRTHPTGSGIWELKKDVYVVELDWYPDAPGEMVVLTCDTPEEDGITWTLDQSSEVLGSGKTLTIQVKAAGDAGQYTCHKGGEVLSHSLLLLHKKEDGIWSTDILKDQKEPKNKTFLRCEAKNYSGRFTCWWLTTISTDLTFSVKSSRGSSDPQGVTCGAATLSAERVRGDNKEYEYSVECQEDSACPAAEESLPIEVMVDAVHKLKYENYTSSFFIRDIIKPDPPKNLQLKPLKNSRQVEVSWEYPDTWSTPHSYFSLTFCVQVQGKSKREKKDRVFTDKTSATVICRKNASISVRAQDRYYSSSWSEWASVPCSGGGGSGGGGSGGGGSGGGGSGRNLPVATPDPGMFPCLHHSQNLLRAVSNMLQKARQTLEFYPCTSEEIDHEDITKDKTSTVEACLPLELTKNESCLNSRETSFITNGSCLASRKTSFMMALCLSSIYEDLKMYQVEFKTMNAKLLMDPKRQIFLDQNMLAVIDELMQALNFNSETVPQKSSLEEPDFYKTKIKLCILLHAFRIRAVTIDRVMSYLNASDKTHTCPPCPAPEDEGGPSVFLFPPKPKDTLMISRTPEVTCVVVDVSHEDPEVKFNWYVDGVEVHNAKTKPREEQYNSTYRVVSVLTVLHQDWLNGKEYKCKVSNKALPAPIEKTISKAKGQPREPQVYVYPPSREEMTKNQVSLTCLVKGFYPSDIAVEWESNGQPENNYKTTPPVLDEDGSFALVSKLTVDKSRWQQGNVFSCSVMHEALHNHYTQKSLSLSPGK
chain 2: LFTVTVPKELYIIEHGSNVTLECNFDTGSHVNLGAITASLQKVENDTSPHRERATLLEEQLPLGKASFHIPQVQVRDEGQYQCIIIYGVAWDYKYLTLKVKASYRKINTHILKVPETDEVELTCQATGYPLAEVSWPNVSVPANTSHSRTPEGLYQVTSVLRLKPPPGRNFSCVFWNTHVRELTLASIDLQSQMEPRTHPTGSGDKTHTCPPCPAPEKKGGPSVFLFPPKPKDTLMISRTPEVTCVVVDVSHEDPEVKFNWYVDGVEVHNAKTKPREEQYNSTYRVVSVLTVLHQDWLNGKEYKCKVSNKALPAPIEKTISKAKGQPREPQVYVLPPSREEMTKNQVSLLCLVKGFYPSDIAVEWESNGQPENRYMTWPPVLDSDGSFFLYSKLTVDKSRWQQGNVFSCSVMHEALHNHYTQKSLSLSPGK
notes: also called IL-12(E59A/F60A)/PD-L2-Fc immunocytokine; construct #29
Kd [8]: 980 nM
